{
  "source": "patent US10500249B2",
  "about": "“Compositions and methods for preventing or treating diseases, conditions, or processes characterized by aberrant fibroblast proliferation and extracellular matrix deposition” (MOERAE MATRIX, INC., priority 2014, dated 2019)",
  "key": {"CK1γ2 (h)": {"molecular_target": "T1, CK1γ2 (h) (Homo sapiens, UniProt P78368)", "T1 construct": "purchased Millipore", "test": "Kinase Profiling Assay", "type": "biochemical", "conditions": "100 μM", "procedure,_shortened": "(§1)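 Each kinase activity was measured in duplicate. Phosphorylation of a positively charged substrate with radiolabeled phosphate from ATP was captured on a negatively charged filter, counted by scintillation and expressed relative to a 100% activity control. MK2 inhibitory peptides were screened for specificity across 266 human kinases.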"}, "Aurora-A (h)": {"molecular_target": "T2, Aurora-A (h) (Homo sapiens, UniProt O14965)", "T2 sequence (O14965 1-403)": "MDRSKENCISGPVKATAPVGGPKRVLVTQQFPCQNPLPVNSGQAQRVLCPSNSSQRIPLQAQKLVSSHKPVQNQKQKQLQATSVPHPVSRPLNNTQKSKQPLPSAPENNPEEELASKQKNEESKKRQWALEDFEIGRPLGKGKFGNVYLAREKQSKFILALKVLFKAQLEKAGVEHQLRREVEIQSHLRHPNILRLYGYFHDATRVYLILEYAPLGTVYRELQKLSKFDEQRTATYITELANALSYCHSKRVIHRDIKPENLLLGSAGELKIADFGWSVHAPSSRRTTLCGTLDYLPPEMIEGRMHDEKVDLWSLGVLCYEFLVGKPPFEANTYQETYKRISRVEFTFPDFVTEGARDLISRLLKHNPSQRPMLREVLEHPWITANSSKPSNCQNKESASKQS", "test": "Kinase Profiling Assay", "type": "biochemical", "conditions": "100 μM", "procedure,_shortened": "as §1"}, "HIPK3 (h)": {"molecular_target": "T3, HIPK3 (h) (Homo sapiens, UniProt Q9H422)", "T3 construct": "purchased Millipore", "test": "Kinase Profiling Assay", "type": "biochemical", "conditions": "100 μM", "procedure,_shortened": "as §1"}, "Abl (H396P) (h)": {"molecular_target": "Abl (H396P) (h) (Homo sapiens, UniProt P00519, H396P)", "test": "Kinase Profiling Assay", "type": "biochemical", "conditions": "100 μM", "procedure,_shortened": "as §1"}, "EGFR(T790M) (h)": {"molecular_target": "T4, EGFR(T790M) (h) (Homo sapiens, UniProt P00533, T790M)", "T4 construct": "purchased Millipore", "test": "Kinase Profiling Assay", "type": "biochemical", "conditions": "100 μM", "procedure,_shortened": "as §1"}, "Abl (M351T) (h)": {"molecular_target": "Abl (M351T) (h) (Homo sapiens, UniProt P00519, M351T)", "test": "Kinase Profiling Assay", "type": "biochemical", "conditions": "100 μM", "procedure,_shortened": "as §1"}, "MKK7β (h)": {"molecular_target": "T5, MKK7β (h) (Homo sapiens, UniProt O14733)", "T5 construct": "purchased Millipore", "T5 sequence (O14733 1-419)": "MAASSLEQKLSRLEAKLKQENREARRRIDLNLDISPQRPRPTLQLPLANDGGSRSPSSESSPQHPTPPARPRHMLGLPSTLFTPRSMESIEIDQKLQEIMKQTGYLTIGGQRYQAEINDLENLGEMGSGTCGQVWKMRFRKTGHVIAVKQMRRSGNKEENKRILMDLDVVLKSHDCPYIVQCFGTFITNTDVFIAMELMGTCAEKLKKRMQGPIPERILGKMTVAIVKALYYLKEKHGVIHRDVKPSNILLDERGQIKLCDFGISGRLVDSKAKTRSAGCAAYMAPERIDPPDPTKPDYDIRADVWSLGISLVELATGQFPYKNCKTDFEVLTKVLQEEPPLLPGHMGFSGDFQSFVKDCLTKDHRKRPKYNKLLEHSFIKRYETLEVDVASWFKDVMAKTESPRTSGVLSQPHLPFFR", "test": "Kinase Profiling Assay", "type": "biochemical", "conditions": "100 μM", "procedure,_shortened": "as §1"}, "c-RAF (h)": {"molecular_target": "T6, c-RAF (h) (Homo sapiens, UniProt P04049)", "T6 construct": "purchased Millipore", "test": "Kinase Profiling Assay", "type": "biochemical", "conditions": "100 μM", "procedure,_shortened": "as §1"}, "MRCKα (h)": {"molecular_target": "T7, MRCKα (h) (Homo sapiens, UniProt Q5VT25)", "T7 construct": "purchased Millipore", "test": "Kinase Profiling Assay", "type": "biochemical", "conditions": "100 μM", "procedure,_shortened": "as §1"}, "cKit(V560G) (h)": {"molecular_target": "T8, cKit(V560G) (h) (Homo sapiens, UniProt P10721, V560G)", "T8 construct": "purchased Millipore", "test": "Kinase Profiling Assay", "type": "biochemical", "conditions": "100 μM", "procedure,_shortened": "as §1"}, "PDGFRα (D842V) (h)": {"molecular_target": "T9, PDGFRα (D842V) (h) (Homo sapiens, UniProt P16234, D842V)", "T9 construct": "purchased Millipore", "T9 sequence (P16234 24-1089 D842V)": "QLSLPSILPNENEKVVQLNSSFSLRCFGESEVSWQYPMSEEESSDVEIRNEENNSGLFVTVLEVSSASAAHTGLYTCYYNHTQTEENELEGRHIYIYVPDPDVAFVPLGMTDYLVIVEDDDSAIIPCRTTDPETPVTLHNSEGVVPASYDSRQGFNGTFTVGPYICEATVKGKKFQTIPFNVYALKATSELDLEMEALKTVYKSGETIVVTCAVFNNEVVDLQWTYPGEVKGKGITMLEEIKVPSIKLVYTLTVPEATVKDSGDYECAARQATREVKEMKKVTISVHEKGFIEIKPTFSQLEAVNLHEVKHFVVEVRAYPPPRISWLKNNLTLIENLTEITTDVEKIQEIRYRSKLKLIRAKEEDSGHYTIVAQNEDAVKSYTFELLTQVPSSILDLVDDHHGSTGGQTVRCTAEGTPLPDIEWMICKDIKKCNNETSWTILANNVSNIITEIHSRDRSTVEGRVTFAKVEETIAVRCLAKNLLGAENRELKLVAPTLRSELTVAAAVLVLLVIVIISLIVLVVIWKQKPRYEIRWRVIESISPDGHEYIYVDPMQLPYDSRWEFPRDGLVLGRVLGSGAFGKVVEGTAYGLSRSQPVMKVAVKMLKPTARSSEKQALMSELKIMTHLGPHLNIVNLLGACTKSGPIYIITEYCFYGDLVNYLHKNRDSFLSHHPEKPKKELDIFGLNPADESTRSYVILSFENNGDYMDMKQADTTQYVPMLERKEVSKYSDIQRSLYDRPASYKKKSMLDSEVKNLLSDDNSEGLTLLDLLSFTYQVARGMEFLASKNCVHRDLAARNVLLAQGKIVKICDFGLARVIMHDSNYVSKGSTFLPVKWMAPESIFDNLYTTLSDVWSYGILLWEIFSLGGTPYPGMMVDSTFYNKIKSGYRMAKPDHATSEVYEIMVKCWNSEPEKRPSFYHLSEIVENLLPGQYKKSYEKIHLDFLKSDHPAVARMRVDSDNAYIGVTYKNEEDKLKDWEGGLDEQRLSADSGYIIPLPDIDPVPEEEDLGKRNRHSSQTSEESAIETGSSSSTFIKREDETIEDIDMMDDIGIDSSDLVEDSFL", "test": "Kinase Profiling Assay", "type": "biochemical", "conditions": "100 μM", "procedure,_shortened": "as §1"}, "PAK6 (h)": {"molecular_target": "T10, PAK6 (h) (Homo sapiens, UniProt Q9NQU5)", "T10 construct": "purchased Millipore", "T10 sequence (Q9NQU5 whole entry)": "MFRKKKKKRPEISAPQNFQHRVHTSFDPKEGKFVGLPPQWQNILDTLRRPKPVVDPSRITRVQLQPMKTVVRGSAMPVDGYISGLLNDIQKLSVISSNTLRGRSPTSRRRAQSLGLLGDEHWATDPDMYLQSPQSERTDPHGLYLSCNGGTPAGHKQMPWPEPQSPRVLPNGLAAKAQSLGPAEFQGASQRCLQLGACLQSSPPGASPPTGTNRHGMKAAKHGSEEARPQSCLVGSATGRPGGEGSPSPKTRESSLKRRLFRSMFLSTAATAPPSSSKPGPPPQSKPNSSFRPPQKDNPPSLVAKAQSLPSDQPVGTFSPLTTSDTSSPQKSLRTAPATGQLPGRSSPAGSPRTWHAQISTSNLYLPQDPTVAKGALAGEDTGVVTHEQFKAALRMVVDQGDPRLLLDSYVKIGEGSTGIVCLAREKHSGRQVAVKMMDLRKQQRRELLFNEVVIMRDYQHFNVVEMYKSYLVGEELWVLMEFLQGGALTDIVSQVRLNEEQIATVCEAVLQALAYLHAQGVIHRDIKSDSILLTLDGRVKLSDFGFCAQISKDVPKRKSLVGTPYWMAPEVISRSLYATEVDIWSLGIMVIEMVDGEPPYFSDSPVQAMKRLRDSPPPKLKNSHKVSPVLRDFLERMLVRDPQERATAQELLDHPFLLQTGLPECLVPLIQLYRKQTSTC", "test": "Kinase Profiling Assay", "type": "biochemical", "conditions": "100 μM", "procedure,_shortened": "as §1"}, "CK2α2 (h)": {"molecular_target": "T11, CK2α2 (h) (Homo sapiens, UniProt P19784)", "T11 construct": "purchased Millipore", "T11 sequence (P19784 whole entry)": "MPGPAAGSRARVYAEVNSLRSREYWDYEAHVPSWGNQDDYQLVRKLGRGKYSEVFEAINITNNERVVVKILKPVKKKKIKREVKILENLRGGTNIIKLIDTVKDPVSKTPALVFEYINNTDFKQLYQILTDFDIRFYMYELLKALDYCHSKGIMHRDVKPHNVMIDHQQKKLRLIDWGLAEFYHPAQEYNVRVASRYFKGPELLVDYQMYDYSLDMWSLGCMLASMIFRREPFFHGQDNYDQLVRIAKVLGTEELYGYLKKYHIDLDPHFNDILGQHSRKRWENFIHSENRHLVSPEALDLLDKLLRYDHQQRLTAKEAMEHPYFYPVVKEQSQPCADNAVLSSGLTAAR", "test": "Kinase Profiling Assay", "type": "biochemical", "conditions": "100 μM", "procedure,_shortened": "as §1"}, "IGF-1R (h)": {"molecular_target": "T12, IGF-1R (h) (Homo sapiens, UniProt P08069)", "T12 construct": "purchased Millipore", "test": "Kinase Profiling Assay", "type": "biochemical", "conditions": "100 μM", "procedure,_shortened": "as §1"}, "GRK5 (h)": {"molecular_target": "T13, GRK5 (h) (Homo sapiens, UniProt P34947)", "T13 construct": "purchased Millipore", "T13 sequence (P34947 whole entry)": "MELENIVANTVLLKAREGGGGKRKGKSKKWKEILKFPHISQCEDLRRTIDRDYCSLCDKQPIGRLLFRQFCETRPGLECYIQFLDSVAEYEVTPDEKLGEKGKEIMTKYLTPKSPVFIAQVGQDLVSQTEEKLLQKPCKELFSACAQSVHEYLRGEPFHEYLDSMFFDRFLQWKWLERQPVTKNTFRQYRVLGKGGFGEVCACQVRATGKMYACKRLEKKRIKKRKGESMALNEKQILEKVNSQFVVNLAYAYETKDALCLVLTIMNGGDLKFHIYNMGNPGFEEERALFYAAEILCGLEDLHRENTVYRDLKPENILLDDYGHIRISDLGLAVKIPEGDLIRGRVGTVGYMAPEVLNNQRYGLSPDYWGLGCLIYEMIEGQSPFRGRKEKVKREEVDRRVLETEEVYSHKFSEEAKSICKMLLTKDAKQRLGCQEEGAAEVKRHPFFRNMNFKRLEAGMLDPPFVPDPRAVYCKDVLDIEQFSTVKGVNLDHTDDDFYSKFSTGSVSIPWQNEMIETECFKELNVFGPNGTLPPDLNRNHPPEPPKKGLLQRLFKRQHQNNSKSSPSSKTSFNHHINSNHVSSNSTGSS", "test": "Kinase Profiling Assay", "type": "biochemical", "conditions": "100 μM", "procedure,_shortened": "as §1"}, "[1]": {"system": "human fetal lung fibroblasts (IMR-90), α-SMA", "test": "TGF-β-induced myofibroblast activation, α-SMA immunoblot", "type": "cell-based", "conditions": "1 h pre-treatment, then TGF-β1 (2 ng/ml) 48 h", "excerpt": "Cell lysates were immunoblotted against antibodies for α-SMA (a marker for myofibroblast activation) and GAPDH (loading control)."}, "Plk1 (h)": {"molecular_target": "Plk1 (h) (Homo sapiens, UniProt P53350)", "sequence (P53350 whole entry)": "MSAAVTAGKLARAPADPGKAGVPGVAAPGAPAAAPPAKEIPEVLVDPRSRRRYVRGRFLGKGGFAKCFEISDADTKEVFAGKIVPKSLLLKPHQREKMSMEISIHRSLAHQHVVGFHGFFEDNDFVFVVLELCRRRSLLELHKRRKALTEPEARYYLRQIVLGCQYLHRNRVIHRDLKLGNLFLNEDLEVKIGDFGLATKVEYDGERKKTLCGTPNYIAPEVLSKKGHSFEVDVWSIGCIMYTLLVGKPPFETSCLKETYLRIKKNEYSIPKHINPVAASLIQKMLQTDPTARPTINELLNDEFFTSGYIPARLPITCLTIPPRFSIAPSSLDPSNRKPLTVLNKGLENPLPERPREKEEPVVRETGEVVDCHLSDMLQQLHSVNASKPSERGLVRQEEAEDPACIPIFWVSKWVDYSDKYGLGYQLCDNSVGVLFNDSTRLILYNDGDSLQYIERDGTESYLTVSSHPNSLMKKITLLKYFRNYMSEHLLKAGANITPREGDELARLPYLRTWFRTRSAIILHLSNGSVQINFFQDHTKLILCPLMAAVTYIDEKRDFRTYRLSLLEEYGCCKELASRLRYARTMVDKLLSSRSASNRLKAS", "test": "Kinase Profiling Assay", "type": "biochemical", "conditions": "100 μM", "procedure,_shortened": "as §1"}, "CK1γ1 (h)": {"molecular_target": "T14, CK1γ1 (h) (Homo sapiens, UniProt Q9HCP0)", "T14 construct": "purchased Millipore", "T14 sequence (Q9HCP0 whole entry)": "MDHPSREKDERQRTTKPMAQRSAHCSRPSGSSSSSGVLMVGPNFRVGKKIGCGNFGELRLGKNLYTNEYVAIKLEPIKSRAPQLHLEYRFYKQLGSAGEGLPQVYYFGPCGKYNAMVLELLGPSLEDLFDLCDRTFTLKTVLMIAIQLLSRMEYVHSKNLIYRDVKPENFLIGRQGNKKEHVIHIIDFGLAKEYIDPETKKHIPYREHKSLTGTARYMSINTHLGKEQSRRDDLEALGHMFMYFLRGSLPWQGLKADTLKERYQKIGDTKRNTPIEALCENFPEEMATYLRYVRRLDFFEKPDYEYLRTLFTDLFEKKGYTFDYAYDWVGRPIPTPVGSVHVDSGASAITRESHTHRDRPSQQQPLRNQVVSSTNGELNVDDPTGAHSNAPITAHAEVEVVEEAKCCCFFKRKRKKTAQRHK", "test": "Kinase Profiling Assay", "type": "biochemical", "conditions": "100 μM", "procedure,_shortened": "as §1"}, "CLK2 (h)": {"molecular_target": "T15, CLK2 (h) (Homo sapiens, UniProt P49760)", "T15 construct": "purchased Millipore", "T15 sequence (P49760 whole entry)": "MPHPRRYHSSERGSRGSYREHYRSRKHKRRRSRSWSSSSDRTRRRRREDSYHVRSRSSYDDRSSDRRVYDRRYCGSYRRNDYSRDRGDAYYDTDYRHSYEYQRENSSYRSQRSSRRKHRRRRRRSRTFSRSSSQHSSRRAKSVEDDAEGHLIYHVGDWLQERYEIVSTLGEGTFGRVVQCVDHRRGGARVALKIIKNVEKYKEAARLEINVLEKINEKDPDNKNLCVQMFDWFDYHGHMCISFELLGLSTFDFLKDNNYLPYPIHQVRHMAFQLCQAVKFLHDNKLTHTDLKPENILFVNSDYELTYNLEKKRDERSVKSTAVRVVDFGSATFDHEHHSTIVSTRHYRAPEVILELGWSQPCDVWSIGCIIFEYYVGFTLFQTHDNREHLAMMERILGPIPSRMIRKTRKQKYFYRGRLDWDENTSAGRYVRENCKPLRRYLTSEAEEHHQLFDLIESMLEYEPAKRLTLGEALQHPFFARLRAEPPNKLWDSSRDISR", "test": "Kinase Profiling Assay", "type": "biochemical", "conditions": "100 μM", "procedure,_shortened": "as §1"}, "[2]": {"system": "human fetal lung fibroblasts (IMR-90), fibronectin", "test": "TGF-β-mediated fibronectin expression", "type": "cell-based", "conditions": "1 h pre-treatment, then TGF-β1 (2 ng/ml) 72 h", "procedure": "Fibronection was measured as secreted fragments in the conditioned media. Equal amounts (14 μg) of total proteins from the conditioned media were loaded in each lane."}},
  "data": [
    {"sequence": "FAKLAARLYRKALARQLGVAA [MMI-0300]", "values": [
      {"measurement": "% activity", "setting": "CK1γ2 (h)", "value": 123, "unit": "%"},
      {"measurement": "% activity", "setting": "Aurora-A (h)", "value": 92, "unit": "%"},
      {"measurement": "% activity", "setting": "HIPK3 (h)", "value": 93, "unit": "%"},
      {"measurement": "% activity", "setting": "Abl (H396P) (h)", "value": 101, "unit": "%"},
      {"measurement": "% activity", "setting": "EGFR(T790M) (h)", "value": 100, "unit": "%"},
      {"measurement": "% activity", "setting": "Abl (M351T) (h)", "value": 90, "unit": "%"},
      {"measurement": "% activity", "setting": "MKK7β (h)", "value": 100, "unit": "%"}
    ]},
    {"sequence": "HRRIKAWLKKIKALARQLGVAA (Mammalian) [MMI-0500]", "values": [
      {"measurement": "% activity", "setting": "Aurora-A (h)", "value": 110, "unit": "%"},
      {"measurement": "% activity", "setting": "HIPK3 (h)", "value": 85, "unit": "%"},
      {"measurement": "% activity", "setting": "Abl (H396P) (h)", "value": 51, "unit": "%"},
      {"measurement": "% activity", "setting": "c-RAF (h)", "value": 19, "unit": "%"},
      {"measurement": "% activity", "setting": "EGFR(T790M) (h)", "value": 70, "unit": "%"},
      {"measurement": "% activity", "setting": "MRCKα (h)", "value": 5, "unit": "%"},
      {"measurement": "% activity", "setting": "Abl (M351T) (h)", "value": 61, "unit": "%"},
      {"measurement": "% activity", "setting": "cKit(V560G) (h)", "value": 198, "unit": "%"},
      {"measurement": "% activity", "setting": "PDGFRα (D842V) (h)", "value": 170, "unit": "%"}
    ]},
    {"sequence": "KAFAKLAARLYRKALARQLGVAA [MMI-0400]", "values": [
      {"measurement": "% activity", "setting": "PAK6 (h)", "value": 100, "unit": "%"},
      {"measurement": "% activity", "setting": "CK2α2 (h)", "value": 96, "unit": "%"},
      {"measurement": "% activity", "setting": "IGF-1R (h)", "value": 90, "unit": "%"},
      {"measurement": "% activity", "setting": "MRCKα (h)", "value": 97, "unit": "%"},
      {"measurement": "% activity", "setting": "GRK5 (h)", "value": 131, "unit": "%"},
      {"measurement": "% activity", "setting": "cKit(V560G) (h)", "value": 124, "unit": "%"},
      {"measurement": "% activity", "setting": "MKK7β (h)", "value": 94, "unit": "%"},
      {"measurement": "% activity", "setting": "PDGFRα (D842V) (h)", "value": 118, "unit": "%"}
    ]},
    {"sequence": "YARAAARQARAKALNRQLGVA (Mammalian) [MMI-0200]", "values": [
      {"measurement": "protein level of α-smooth muscle actin (α-SMA)", "setting": "[1]", "value": "no changes in the protein level"},
      {"measurement": "% activity", "setting": "Plk1 (h)", "value": 128, "unit": "%"},
      {"measurement": "% activity", "setting": "CK2α2 (h)", "value": 88, "unit": "%"},
      {"measurement": "% activity", "setting": "IGF-1R (h)", "value": 49, "unit": "%"},
      {"measurement": "% activity", "setting": "GRK5 (h)", "value": 135, "unit": "%"},
      {"measurement": "% activity", "setting": "CK1γ1 (h)", "value": 98, "unit": "%"},
      {"measurement": "% activity", "setting": "CLK2 (h)", "value": 97, "unit": "%"},
      {"measurement": "protein level of fibronectin (secreted fragments in conditioned media)", "setting": "[2]", "value": "no changes in the protein level"}
    ]}
  ]
}
